Test results as given in patent US6911526B2, “Compounds that inhibit the interaction between signal-transducing proteins and the GLGF (PDZ/DHR) domain and uses thereof” (The Trustees of Columbia University in the City of New York, priority 1996, dated 2005).
Entries after “also recorded” stand apart in the source; their conditions may differ. Where no end group is shown, it is not given here.

Columns and labels:
Fas/FAP-1 binding [1] = experiment: In vitro inhibition assay of Fas/FAP-1 binding (GST-Fas and in vitro-translated 35S-FAP-1); settings: for binding of in vitro-translated FAP-1 to GST-Fas: FIG. 3A, C-terminal 15 amino acids at 1-1000 μM, human PAMP 1 mM as negative control
Method: HFAP-10 cDNA (Sato, et al. 1995) subcloned into the Bluescript vector pSK-II (Stratagene) was in vitro-translated from an internal methionine codon in the presence of ^35S-L-methionine using a coupled in vitro transcription/translation system (Promega, TNT lysate) and T7 RNA polymerase. The resulting ^35S-labeled protein was incubated with GST-Fas fusion proteins that had been immobilized on […] affinity beads (Pharmacia) in a buffer containing 150 mM NaCl, 50 mM Tris [pH 8.0], 5 mM DTT, 2 mM EDTA, 0.1% NP-40, 1 mM PMSF, 50 μg/ml leupeptin, 1 mM Benzamidine, and 7 μg/ml pepstatin for 16 hours at 4° C. After washing vigorously 4 times in the same buffer, associated proteins were recovered with the glutathione-Sepharose beads by centrifugation, eluted into boiling Laemmli buffer, and analyzed by SDS-PAGE and fluorography.
In vitro-translated [^35S]HFAP-1 was purified with a NAP-5 column (Pharmacia) and incubated with 3 μM of GST-fusion proteins for 16 hours at 4° C. After washing 4 times in the binding buffer, radioactivity incorporation was determined in a b counter. The percentage of binding inhibition was calculated as follows: percent inhibition=[radioactivity incorporation using GST-Fas (191-335) with peptides−radioactivity incorporation using GST-Fas (191-320) with peptides]/[radioactivity incorporation using GST-Fas (191-335) without peptides−radioactivity incorporation using GST-Fas (191-320) without peptides]. n=3.

Fas/FAP-1 binding [2] = experiment: Inhibition of binding of GST-FAP-1 to native Fas extracted from Jurkat T-cells (Western analysis); settings: GST-FAP-1, Jurkat T-cell extracts; FIGS. 4C and 4D
Method: GST-fusion proteins with or without FAP-1 were incubated with cell extracts from Jurkat T-cells expressing Fas. The bound Fas was detected by Western analysis using anti-Fas monoclonal antibody (F22120, Transduction Laboratories). The tripeptides, Ac-SLV and Ac-SLY were used for the inhibition assay of Pas/FAP-1 binding.

[3] = system: DLD-1 human colon cancer cells; experiment: Microinjection of synthetic tripeptides into DLD-1 cells, Fas-induced apoptosis; type: cell-based; settings: tripeptide 100 mM microinjected into cytoplasm, Fas monoclonal antibody CH11 500 ng/ml, 16-20 hours postinjection, condensed chromatin (Hoechst 33342)
Method: DLD-1 human colon cancer cells were cultured in RPMI 1640 medium containing 10% FCS. For microinjection, cells were plated on CELLocate (Eppendorf) at 1×10^5 cells/2 ml in a 35 mm plastic culture dish and grown for 1 day. Just before microinjection, Fas monoclonal antibodies CH11 (MBL International) was added at the concentration of 500 ng/ml. All microinjection experiments were performed using an automatic microinjection system (Eppendorf transjector 5246, micro-manipulator 5171 and Femtotips) (Pantel, et al. 1995). Synthetic tripeptides were suspended in 0.1% (w/v) FITC-Dextran (Sigma)/K-PBS at the concentration of 100 mM. The samples were microinjected into the cytoplasmic region of DLD-1 cells. Sixteen to 20 hours postinjection, the cells were washed with PBS and stained with 10 μg/ml Hoechst 33342 in PBS. After incubation at 37° C. for 30 minutes, the cells were photographed and the cells showing condensed chromatin were counted as apoptotic.
For each experiment, 25-100 cells were microinjected. Apoptosis of microinjected cells was determined by assessing morphological changes of chromatin using phase contrast and fluorescence microscopy (Wang, et al., 1995; McGahon, et al., 1995). The data are means +/− S.D. for two or three independent determinations.

FAP-1 = experiment: Interaction of C-terminal tripeptides fused to LexA with FAP-1 in yeast two-hybrid system; type: cell-based; settings: LexA fusion co-transformed into yeast L40 with pVP16-FAP-1; FIG. 4A
Excerpt: The bait plasmids, pBTM116 (LexA)-SLV, -PLV, -SLY, and -SLA, were constructed and transformed into L40-strain with pVP16-FAP-1 or -ras. Six independent clones from each transformants were picked up for the analysis of growth on histidine-deficient medium. GST-Fas, -SLV, and PLV were purified with GST-Sepharose 4B affinity beads (Pharmacia). The methods for in vitro binding are described above.

LexA-SLA fusion protein = biological target: T1, LexA-SLA fusion protein (UniProt P0A7C2 1-202); experiment: yeast two-hybrid (growth on histidine-deficient medium)
T1 construct: Yeast two-hybrid bait; also called pBTM116 (LexA)-SLA
T1 sequence: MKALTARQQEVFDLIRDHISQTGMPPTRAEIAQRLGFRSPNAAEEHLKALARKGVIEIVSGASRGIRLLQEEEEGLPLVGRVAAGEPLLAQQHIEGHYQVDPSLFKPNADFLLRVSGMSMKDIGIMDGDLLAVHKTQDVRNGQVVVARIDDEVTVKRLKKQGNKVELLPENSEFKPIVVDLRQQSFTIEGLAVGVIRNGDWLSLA

LexA-SLY fusion protein = biological target: T2, LexA-SLY fusion protein (UniProt P0A7C2 1-202); experiment: as above
T2 construct: Yeast two-hybrid bait; also called pBTM116 (LexA)-SLY
T2 sequence: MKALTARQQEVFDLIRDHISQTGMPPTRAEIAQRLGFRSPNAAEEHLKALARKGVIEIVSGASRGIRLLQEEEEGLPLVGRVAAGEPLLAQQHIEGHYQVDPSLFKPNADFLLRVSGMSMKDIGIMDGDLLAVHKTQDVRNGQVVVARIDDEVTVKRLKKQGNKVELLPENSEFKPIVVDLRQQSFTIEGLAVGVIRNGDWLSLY

LexA-PLV fusion protein = biological target: T3, LexA-PLV fusion protein (UniProt P0A7C2 1-202); experiment: as above
T3 construct: Yeast two-hybrid bait; also called pBTM116 (LexA)-PLV; -PLy
T3 sequence: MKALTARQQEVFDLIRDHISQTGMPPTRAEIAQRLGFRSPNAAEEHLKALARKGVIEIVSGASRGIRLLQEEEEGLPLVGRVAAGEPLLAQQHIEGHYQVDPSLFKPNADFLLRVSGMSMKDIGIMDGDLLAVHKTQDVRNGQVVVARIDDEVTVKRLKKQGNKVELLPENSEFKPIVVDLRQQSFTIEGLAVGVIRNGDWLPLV

## Ac-SLV-COOH (Ac-Ser-Leu-Val-OH) [acetylated tripeptide of the three C-terminal amino acids of Fas]
Fas/FAP-1 binding [1]; FIG. 3B, acetylated synthetic peptides
  inhibitory effect on the binding of FAP-1 to Fas, truncated acetylated peptides: same level of inhibitory effect
Fas/FAP-1 binding [2]
  binding activity of FAP-1 to Fas proteins extracted from Jurkat T-cells: abolished in a dose-dependent manner
[3]
  induction of apoptosis in microinjected DLD-1 cells: dramatically induced apoptosis

## Ac-SLY: acetylated synthetic tripeptide SLY, used as non-binding control (Ac-Ser-Leu-Tyr)
Fas/FAP-1 binding [2]
  binding activity of FAP-1 to Fas proteins extracted from Jurkat T-cells: not
[3]
  induction of apoptosis in microinjected DLD-1 cells: did not; also recorded: only one cell of the area appeared apoptotic

## DSENSNFRNEIQSLV (Ac-DSENSNFRNEIQSLV) [synthetic 15 amino acids of Fas, synthetic peptide of the C-terminal 15 amino acids of Fas]
Fas/FAP-1 binding [1]
  binding of in vitro-translated FAP-1 to GST-Fas: dramatically reduced and dependent on the concentration

## human PAMP peptide: N-terminal 20 amino acids of proadrenomedullin, negative control (ARLDVASEFRKKWNKWALSR) [reference compound]
Fas/FAP-1 binding [1]
  binding of in vitro-translated FAP-1 to GST-Fas: no effect

B1: LexA-SLV: LexA DNA binding domain fused to tripeptide SLV (yeast bait) (protein)
chain: MKALTARQQEVFDLIRDHISQTGMPPTRAEIAQRLGFRSPNAAEEHLKALARKGVIEIVSGASRGIRLLQEEEEGLPLVGRVAAGEPLLAQQHIEGHYQVDPSLFKPNADFLLRVSGMSMKDIGIMDGDLLAVHKTQDVRNGQVVVARIDDEVTVKRLKKQGNKVELLPENSEFKPIVVDLRQQSFTIEGLAVGVIRNGDWLSLV
FAP-1
  association with FAP-1 in yeast (growth on histidine-deficient medium): associated with FAP-1

B2: LexA-SLA: LexA DNA binding domain fused to tripeptide SLA (yeast bait) (protein)
chain: MKALTARQQEVFDLIRDHISQTGMPPTRAEIAQRLGFRSPNAAEEHLKALARKGVIEIVSGASRGIRLLQEEEEGLPLVGRVAAGEPLLAQQHIEGHYQVDPSLFKPNADFLLRVSGMSMKDIGIMDGDLLAVHKTQDVRNGQVVVARIDDEVTVKRLKKQGNKVELLPENSEFKPIVVDLRQQSFTIEGLAVGVIRNGDWLSLA
FAP-1
  association with FAP-1 in yeast (growth on histidine-deficient medium): did not

B3: LexA-PLY: LexA DNA binding domain fused to tripeptide PLY (yeast bait) (protein)
chain: MKALTARQQEVFDLIRDHISQTGMPPTRAEIAQRLGFRSPNAAEEHLKALARKGVIEIVSGASRGIRLLQEEEEGLPLVGRVAAGEPLLAQQHIEGHYQVDPSLFKPNADFLLRVSGMSMKDIGIMDGDLLAVHKTQDVRNGQVVVARIDDEVTVKRLKKQGNKVELLPENSEFKPIVVDLRQQSFTIEGLAVGVIRNGDWLPLY
FAP-1
  association with FAP-1 in yeast (growth on histidine-deficient medium): did not

B4: LexA-SLY: LexA DNA binding domain fused to tripeptide SLY (yeast bait) (protein)
chain: MKALTARQQEVFDLIRDHISQTGMPPTRAEIAQRLGFRSPNAAEEHLKALARKGVIEIVSGASRGIRLLQEEEEGLPLVGRVAAGEPLLAQQHIEGHYQVDPSLFKPNADFLLRVSGMSMKDIGIMDGDLLAVHKTQDVRNGQVVVARIDDEVTVKRLKKQGNKVELLPENSEFKPIVVDLRQQSFTIEGLAVGVIRNGDWLSLY
FAP-1
  association with FAP-1 in yeast (growth on histidine-deficient medium): did not

B5: LexA-PLV: LexA DNA binding domain fused to tripeptide PLV (yeast bait) (protein)
chain: MKALTARQQEVFDLIRDHISQTGMPPTRAEIAQRLGFRSPNAAEEHLKALARKGVIEIVSGASRGIRLLQEEEEGLPLVGRVAAGEPLLAQQHIEGHYQVDPSLFKPNADFLLRVSGMSMKDIGIMDGDLLAVHKTQDVRNGQVVVARIDDEVTVKRLKKQGNKVELLPENSEFKPIVVDLRQQSFTIEGLAVGVIRNGDWLPLV
FAP-1
  association with FAP-1 in yeast (growth on histidine-deficient medium): did not

B6: FAP-1 expressed from plasmid pVP16-31 (VP16 fusion, yeast two-hybrid prey) (other)
chain: KMNFKTFSSSPPKPGDIFEVELAKNDNSLGISVTGGVNTSVRHGGIYVKAVIPQGAAESDGRIHKGDRVLAVNGVSLEGATHKQAVETLRNTGQVVHLLLEKGQSPTSKEHVPVTPQCTLS
notes: also called pVP16-FAP-1; Fas-associated phosphatase-1
LexA-SLA fusion protein
  binding result: no binding
LexA-SLY fusion protein
  binding result: no binding
LexA-PLV fusion protein
  binding result: no binding
